Experimental data as given in the domain aggregation screens of Martell et al. (2025).

Assay: soluble fraction after stress (log2 fold change); higher = more stays soluble; pooled small domains, quantitative proteomics
Details: stress: 75 degC
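Note: 20 min heating vs room temperature control held 20 min.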

## HMAKRPRFEDVIKEINTEIQKRKGKWNLTILSWMDFDDVAQVIRIHIYRKWHLYDPSKPLGPWLNR
  soluble fraction (log2): -0.339

## HMAKSETAKIKATPYGWLRVRDTPSLNGAEIARVNSGDEYKVLEKETGWIKIKVSDTVEGWVSDAYIELS
  soluble fraction (log2): -0.21

## HMAKSKYETHVLPNLDKIIKWAKAGATAKEIAANLHIAYSTFRKYLDEGQEGDERYAALSAAFAQA
  soluble fraction (log2): -0.0762

## HMALDLNEDEKLLVELIEKAGGTAGLGELKEASGLSGKKWDKTTKNLSKEGLIKVEKNESGLWVHLT
  soluble fraction (log2): 0.0861

## HMALDLPVKRVKGKEYYYYKVKKGESLYGISKHLGLPLDSIVKSNPSVADGVRKGDMLLFPLEEYT
  soluble fraction (log2): -0.702

## HMALKQADFDFIRQMIQQRAAIVLDDNKHYFVESRLGPVVEETGSKSLDQLIDQLRSSSNSLLQQKVTEAI
  soluble fraction (log2): -0.372

## HMALLSDEERIATVFAARLGGYSHQEIYKLLQDRFGPSLPAAYSEKSVLTDLQTALSQVPSL
  soluble fraction (log2): -0.814

## HMALPEHIEPFLRGLGQALAEGDSYEDVQERLLRAYPYLDSTEFQTALARVIFISDLWGRLN
  soluble fraction (log2): -1.85

## HMALPPPELRGATGEAVTALRPAGIALIQGKRYDVLAEGGEWIAAGAAVRVRDIRNGHLIVSDA
  soluble fraction (log2): -0.268

## HMALRFMAYGRINGTNVHFRTGASASTASLGRYSRGTEFGVYDKIGGWYRVRLLSTGQEGYVYSRYLTLTG
  soluble fraction (log2): -2.53

## HMALSGTVQNFAGGIMILIFRPFKTGDYIEALGYFGKVSEVNIVSTKLRTFDNKTIILPNGALSNGNIQNY
  soluble fraction (log2): -0.772

## HMALSSQQIKDMQSWYGTKADGIWGSKSTTAAGGRDAGAAYSLYSSNKGRYSSYTDYMSYGGG
  soluble fraction (log2): 0.341

## HMALSTRERMSFVLEVLKEKEFIPFVDLFSPEEGRAGVVVTFLALMELMKDSLIEIVQTKNFGEIHVRARL
  soluble fraction (log2): -0.316

## HMALTQEQLGQRLQDARKSVALTQQEVAEDLGLSRESLAQIEAGSRSVNSLEIVRLARLYGRSLSSILLE
  soluble fraction (log2): -0.893

## HMALYSEQVSEIEKALMSLPPKYQLVMLLLYAEDLKYEQIAEILDEPIGTVKTKIHRARKILKERF
  soluble fraction (log2): -0.147

## HMAMDSGELEAIVDRLISEHPDDWAALTAGDDRERKKKSGFFVGEVMKATRGQADGRAVIELLASRSA
  soluble fraction (log2): -0.0771

## HMAMDYTVVHSDRRTIAIQIQRDGRVVVRAPYAATAEDIRRVVDSHRDWVEKTVRRQQEQLAAS
  soluble fraction (log2): -0.985

## HMAMNITQRHQEILAVIKQEKHITVSEISKLLGVSEVTIRKDFNYLEEKNLIYRHHGGASLNN
  soluble fraction (log2): -2.78

## HMAMPQPVARALHRLGQDISAARRMRRLSQEDLAQRIGTSLSTVRRMEDGYPGTALHTFLRALHML
  soluble fraction (log2): -0.552

## HMAMSDFDALSNRISTLSQGRASAVRMKDGIVSLVLDIGGLSAEERKAMTAAIEGEGRGYPSVTQVRILET
  soluble fraction (log2): -0.15

## HMANAGKFDSDMGEKINFPGNRVSLTPSELEAARELAAIMGDRFFSQLIPTTSKVTVTEMLQSLK
  soluble fraction (log2): 0.745

## HMANGTVKWFNTTKGFGFIAPETGGKDVFVHISAVERSGLTGLADDQKVTFDVEAGRDGRESAVNLAL
  soluble fraction (log2): 0.0695

## HMANKTVPNVSGKTVAEARAIIENQSLQVGEEKEEYSDSVAEGYIIRTNPTAGSQKKEQSKIDLVVSKG
  soluble fraction (log2): 0.128

## HMANLDSLIKKVGQYAKDKQSISVDGIKKDLSIDKDMVKEALAELLKIGVVDKPDEAGQYKVIM
  soluble fraction (log2): 0.51

## HMANPMFAEIKKVQKQLNEMGYQAGPADGLWGNKTENAVKLLLSDNNLKWDGTFDQNEIKIIEEIFLSND
  soluble fraction (log2): -0.241

## HMANPRLEYFLSNITPDWNEFSPELKNQLLIENADPYKLEQYILQVSPDMYIEEQNAPGTVRQMAGDITG
  soluble fraction (log2): 0.137

## HMANSANARKSLVSKLIAGGKIASQSDLVKALKKQGIVVTQGTASRDLEDIGAIRVRNSEGEIVYALT
  soluble fraction (log2): 0.0457

## HMANSDEEVLNKISTKAPTFNELINKIKEFDDTKEINDIWLDVYRYYITDEEYKEIAKKVITGLTYTNQ
  soluble fraction (log2): -0.386

## HMANSLLVTAQAGGQKLFNFLKRSLHAENNEIHRWIRTGQVRINKKRTKAFDIVHENDEIRIPPFALNR
  soluble fraction (log2): -0.444

## HMANSREIPKLAGIEQEEAVKQLLDLDLKPVIEEITDDDTDAGDVVRTDPAAGEHVAVDTEITVFISIG
  soluble fraction (log2): -0.987
